The record followed here is US20040038861A1, “Methods and compositions for normalizing lipid levels in mammalian tissues” (priority 2001, published 2004).

The term IC50 denotes the midpoint of a concentration-inhibition curve. Low values mean inhibition by little substance, high ones a need for much substance. By Ki is commonly meant the dissociation constant of the complex between target and ligand, obtained from inhibition or displacement. Read a high Ki as lower affinity.

Test [1] deals with metabolic amylin receptor.
Test [2] concerns the target high affinity CGRP receptor.
Test [3] addresses high affinity CGRP receptor. The source holds these as a separate data set.
Test [4] deals with high affinity CGRP receptor. The source holds these as a separate data set.
The target in test [5] is metabolic amylin receptor. This is another data set of the same source.
For test [6], the system named is soleus muscle. Description: Lipid metabolites (free fatty acid, glycerol, triglyceride; enzymatic analysis) in isolated soleus muscle from normally fed rats. Particulars: 1 h. Type of test: cell-based, rat.
The target of test [7] is T1, ramp 1/C1ins− receptor (Mus musculus, UniProt Q60755+Q9WTJ5).
T1 construct: expressed in transfected cells; host or cells: L6 myoblasts (ATCC), transient co-transfection of pcDNA3.1 plasmids
T1 sequence (Q60755 42-496 isoform Q60755-2 limits assumed): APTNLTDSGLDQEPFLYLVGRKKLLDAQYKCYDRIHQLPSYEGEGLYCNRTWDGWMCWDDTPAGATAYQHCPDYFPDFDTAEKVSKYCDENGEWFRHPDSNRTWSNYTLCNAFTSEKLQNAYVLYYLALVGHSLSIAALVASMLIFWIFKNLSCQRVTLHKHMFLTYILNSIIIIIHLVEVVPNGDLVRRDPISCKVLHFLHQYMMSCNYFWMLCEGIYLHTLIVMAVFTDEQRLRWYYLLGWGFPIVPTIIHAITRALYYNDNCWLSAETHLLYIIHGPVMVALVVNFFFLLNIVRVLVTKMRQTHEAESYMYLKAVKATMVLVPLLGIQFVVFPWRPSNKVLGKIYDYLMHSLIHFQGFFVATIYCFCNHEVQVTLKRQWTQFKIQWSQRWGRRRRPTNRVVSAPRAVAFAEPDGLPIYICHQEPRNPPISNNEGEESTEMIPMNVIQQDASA
T1 sequence (Q9WTJ5 27-148 partner): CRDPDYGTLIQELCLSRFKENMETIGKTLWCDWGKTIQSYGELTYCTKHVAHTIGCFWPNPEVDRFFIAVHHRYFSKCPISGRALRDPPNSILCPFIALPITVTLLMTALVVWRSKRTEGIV
Put plainly: cAMP production in L6 myoblasts co-transfected with ramp 1 and C1ins−. Particulars: 5 μM antagonist; agonist 10 pM to 100 nM. Type of test: cell-based, murine. As for the experimental part: Transfection of L6 myoblasts and cos-7 cells, and analysis of radioligand binding. L6 myoblasts and cos-7 cells were obtained from ATCC. Both cell lines were cultered in Dulbecco's modified Eagle's medium (DMEM; Gibco/BRL, high glucose) supplemented with 10% fetal calf serum (Gibco/BRL, Gaithersburg, Md.), L-glutamine (2 mM), penicillin (100 U/ml; Sigma), streptomycin ([…]; Sigma), saline (0.85%), under 5% CO2/95% air at 37° C. The day before transfection, cells were trypsinised and seeded into six-well plates at a density of 2.9×10^5 cells/well in the same medium. For transfection, cells were incubated with a mixture comprising 1 μg each of Qiagen-purified (Qiagen, Valencia, Calif.) plasmids containing C1ins− with either ramp 1 or ramp 3, and Fugene reagent (6 μl; Boehringer Mannheim) in Opti-Mem I medium (Gibco/BRL). The complex was added with serum to cells, which were incubated for a further 48 h.
Determination of cAMP in cultured cells and soleus muscle strips. cAMP concentration was measured in cells seeded in six-well plates and transfected as described. Following aspiration, cells were incubated for 15 min at room temperature in the presence of stated concentrations of ligands in binding buffer. Isobutylmethylxanthine (Sigma) was added to a final concentration of 0.5 mM together with stated concentrations of peptides, and the reaction terminated by aspiration. Cells were washed with 0.5 ml ice-cold TE buffer (10 mM Tris/HCl, 1 mM EDTA, pH 7.6) and rapidly transferred to eppendorf tubes in 1 ml of the same buffer, then boiled for 5 min. Following centrifugation at 12,000 g for 5 min at 4° C., then cooling on ice, duplicate 50 μl aliquots were analyzed for cAMP using an assay system based on competitive binding (Arnersham Pharmacia) according to the manufacturer's instructions.

The test system of test [8] is soleus muscle. Put plainly: cAMP content of isolated soleus muscle from normal fed rats. Type of test: cell-based, rat. Particulars: normal fed; 10-fold molar excess of antagonist; CGRP alone 6.9±0.8. As to the method: (§1) Soleus muscle preparation. All experiments were performed according to protocols approved by the Institutional Animal Ethics Committee. 5-6 week-old male Wistar rats (160 g) were kept on a 12:12-h light/dark cycle, and fed and watered ad libitum. Animals were anaesthetised with 50 mg/kg Nembutal (pentobarbitone sodium), then sacrificed by cervical dislocation. Soleus muscles were dissected under oxygenated KHB (118 mM NaCl, 4.75 mM KCl, 1.2 mM MgSO4, 24.8 mM NaHCO3, 1.2 mM KH2PO4, 2.54 mM CaCl2, 10 mM glucose, pH 7.4) and teased into halves, then incubated as described below.
(§2) For the measurement of cAMP in muscle, isolated soleus strips were incubated with stated concentrations of peptides, then lyophilized and deproteinized. Each strip was placed in 400 μl of 0.5 M HClO4 with 5 mM EDTA (phosphodiesterase inhibitor) and sonicated three times in 20 s bursts. Tubes were heated for 3-5 min in boiling water to coagulate protein, then centrifuged (12,000 g, 4° C., 2 min). Supernatant (300 μl) was taken and the pH adjusted to 7.0 with 75 μl of 2 M NH4OH. The samples were refrigerated (4° C., 2 h) to precipitate proteins, then centrifuged under the same conditions as above and 50 μl taken for cAMP measurement.

For test [9], the system named is soleus muscle. Put plainly: cAMP content of isolated soleus muscle from high fat-fed rats. Type of test: cell-based, rat. As for the experimental part:
as §1, §2

For test [10], the system named is soleus muscle. Put plainly: Glucose transport (2-deoxy-D-glucose uptake) in incubated soleus muscle strips. It is filed as cell-based, rat. Particulars: antagonist 1 μM and 10 μM; without antagonist 19.5±3.6. As for the experimental part:
as §1
Determination of rates of glucose transport in incubated soleus muscle strips. 4-5 muscle strips were added to each flask, which contained 10 ml DMEM. They were pre-incubated with hormones as indicated for 30 min at 30° C. in a shaking water bath, after which 5 μl of 2[^3H]DOG (0.5 μCi/ml) and 5 μl D[^14C(U)]sorbitol (0.05 μCi/ml) were added, then incubated for another 30 min; RIA grade BSA was added to 0.9% (w/v) to prevent non-specific binding of insulin to flasks. Following incubation, muscle strips were transferred to ice-cold KHB for 5-10 min to remove excess [^3H]DOG and [^14C]sorbitol. They were then blotted, frozen, tendons excised, then lyophilized for a further 48 h. Muscles were then weighed, transferred to scintillation vials and digested with 0.5 ml 1 M NaOH at 60° C. for 1 h. Scintillation fluid (4 ml) was added to each vial, and samples counted in a Beckman liquid scintillation spectrometer, preset to count ^14C and ^3H channels simultaneously. The amount of each isotope present in the samples was determined and used to calculate the extracellular space and the intracellular concentration of [^3H]DOG. The accumulation of intracellular [^3H]DOG, a measure of muscle glucose uptake, was calculated by subtracting the concentration of [^3H]DOG in the extracellular space from the corresponding total muscle [^3H]DOG]; extracellular [^3H]DOG was quantified by measuring the muscle concentration of [^14C]sorbitol.
Data analysis. One way ANOVA, Dunnett's Multiple Comparisons Test, and unpaired Student's t-tests were used to calculate the statistical significance of differences, as appropriate. Dose-response curves were fitted to a sigmoidal dose-response algorithm, as follows: Y=minimum+(maximum−minimum)/([…] log ^(EC50^−X), for 2-DOG-uptake; and by a four parameter logistic model, Y=minimum+(maximum−minimum)/(1+10 log ^(EC50^−X)Hill-Coefficient) for total glycogen and [^14C]glucose incorporation. Calculations were performed using Prism v2.0 (GraphPad Software, San Diego, Calif.) to derive values for half-maximal effective concentration (EC50). Displacement curves derived for competition of bound radioligand with cold ligand in transfected cells were calculated according to a one site competition fit using Prism v2.0.

The target in test [11] is metabolic amylin receptor. This is another data set of the same source.
For test [12], the target named is T2, murine ramp 1/C1ins- receptor (murine, UniProt Q60755).
T2 sequence 1: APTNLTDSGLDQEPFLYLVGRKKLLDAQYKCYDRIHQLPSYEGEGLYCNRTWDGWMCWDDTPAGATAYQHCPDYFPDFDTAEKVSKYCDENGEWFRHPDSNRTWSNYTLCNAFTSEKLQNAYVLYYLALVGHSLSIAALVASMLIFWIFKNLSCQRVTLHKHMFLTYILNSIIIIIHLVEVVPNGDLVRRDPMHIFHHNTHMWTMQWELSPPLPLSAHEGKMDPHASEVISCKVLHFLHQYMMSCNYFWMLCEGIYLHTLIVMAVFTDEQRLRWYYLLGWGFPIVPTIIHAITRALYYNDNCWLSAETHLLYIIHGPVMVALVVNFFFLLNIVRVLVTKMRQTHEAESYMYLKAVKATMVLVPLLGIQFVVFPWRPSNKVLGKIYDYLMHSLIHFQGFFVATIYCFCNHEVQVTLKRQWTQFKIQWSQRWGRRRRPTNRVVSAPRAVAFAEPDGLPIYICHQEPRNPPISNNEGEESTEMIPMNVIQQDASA
T2 sequence 2: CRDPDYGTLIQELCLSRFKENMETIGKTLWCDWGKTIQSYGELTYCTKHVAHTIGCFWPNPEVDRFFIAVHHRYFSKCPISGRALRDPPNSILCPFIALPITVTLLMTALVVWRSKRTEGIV
Description: displacement of 20 nM [^3H]amylin, co-transfected L6 myoblasts. An excerpt: (§3) Cells were then washed and bound radioactivity determined by liquid scintillation counting. […] Each point represents the mean±SEM of three independent myoblast transfections from an experiment repeated at least twice.

Test [13] addresses T2, murine ramp 1/C1ins- receptor. Description: displacement of 20 nM [^3H]amylin, L6 myoblasts co-transfected with murine ramp 1 and C1ins-.
Text: as §3

Test [14] shares this target. Description: displacement of 20 nM [^3H]amylin, co-transfected L6 myoblasts; Cheng and Prusoff with Kd […].
Text: as §3
95% confidence intervals (nM) are bracketed.

Turning to rat CGRP-1 (ligand), in [1], the EC50, ^14C-glucose incorporation into glycogen, with insulin (23.7 nM) worked out at 0.7 nM; the EC50, ^14C-glucose incorporation into glycogen, without insulin amounted to 3.1 nM; the EC50, total glycogen content, without insulin came out at 3.2 nM. In test [2], the lipolysis in skeletal muscle, EC50 as summed up in the description came out at 0.00026 nM. In test [3], the NEFA content of soleus muscle from high fat-fed rats, EC50 worked out at 0.0007 nM and the decrease in intramuscular triglyceride of soleus muscle from high fat-fed rats, EC50 was 0.00025 nM. The same molecule gave a free fatty acid content in incubated rat soleus muscle, EC50 of the first phase in test [4] of 0.00025 nM. The molecule further had a free fatty acid content in incubated rat soleus muscle, EC50 of the second phase in [5] of 45 nM.

With rat amylin-(8-37), the “free fatty acid concentration in conjunction with 1 pM CGRP” value in test [6] (100 pM antagonist + 1 pM CGRP, CGRP alone 166±18) is 86±20 nmol/g. Also, in test [6] (10 μM antagonist or maximally stimulating insulin (23.7 nM) + 100 nM CGRP, CGRP alone 334±52), the “free fatty acid content in conjunction with 100 nM CGRP” value came to 34 ± 5 nmol/g. In addition, the “free fatty acid content in conjunction with 100 nM amylin” value in test [6] (10 μM antagonist or maximally stimulating insulin (23.7 nM) + 100 nM amylin, amylin alone 216±26) stood at 18.5 ± 6 nmol/g. Also, the “antagonism of peptide-evoked cAMP production” value in [7] is reported as “only a modest decrease in cAMP production”. Also, the “cAMP content with 100 nM CGRP plus antagonist” value in test [8] was 2.9 ± 0.8 pmol/mg. The “cAMP content with 100 nM CGRP1 plus antagonist” value in [9] (10-fold molar excess of antagonist) stood at 4.3 ± 0.8 pmol/mg. For the same molecule, the “cAMP content with 1 pM CGRP plus antagonist” value in test [9] (10-molar excess of antagonist, CGRP alone 8.6±0.4) came to 4.4±0.4 pmol/mg. Moreover, the “glucose uptake in presence of amylin (10 nM) and insulin (23.7 nM) plus antagonist” value in test [10] is “no significant effect”.

“rat amylin (from UniProt P12969) (ligand)”: in test [1], the EC50, total glycogen content, without insulin stood at 8 nM. Besides, the free fatty acid content in incubated rat soleus muscle, EC50 in test [11] is 7.8 nM.

VTHRLAGLLSRSGGVVKDNFVPTNVGSEAF [^8,37rat CGRP-1]: the “fold lower Kl than ^8,37amylin” value in [12] was approximately 20 fold. The IC50 in test [13] was 62 nM. In addition, the Ki in test [14] turned out to be 19.5 nM.
